This assay has as its target receptors for neurturin on the cell surface of human neuroblastoma cell line TGW (JCRB0618). Description: cell-based or functional assay.

Experimental findings from patent US20160060317A1 are described below.

B1: human recombinant neurturin (unmodified protein), Q99748 96-197 (ligand)
chain: ARLGARPCGLRELEVRVSELGLGYASDETVLFRYCAGACEAAARVYDLGLRRLRQRRRLRRERVRAQPCCRPTAYEDEVSFLDAHSRYHTVHELSARECACV
Turning to B1, the biological activity in vitro (tyrosine hydroxylase reporter gene, luciferase, TGW cells), EC50 stood at 2.2 ng/ml.

B2: mono-mPEG-NHS-neurturin, Q99748 96-197; Q99748 96-197 (ligand)
chain 1: B1 chain
chain 2: B1 chain
modifications: here or on the partner: about 5 kDa linear PEG (mPEG-succinimidyl succinat reagent, NHS-method) on the N-terminal amino acid
B2 registered a reporter gene activity (luciferase, SRE reporter in TGW cells), EC50 of 9.7 ng/mL.

B3: mono-mPEG-CHO-neurturin, Q99748 96-197; Q99748 96-197 (ligand)
chain 1: B1 chain
chain 2: B1 chain
modifications: here or on the partner: linear 5 kDa polyethylene glycol butyraldehyde-derived PEG on the N-terminal amino acid
Molecule B3 displayed a reporter gene activity (luciferase, SRE reporter in TGW cells), EC50 of 7.4 ng/mL.

B4: mono-CES0310-neurturin, Q99748 96-197; Q99748 96-197 (ligand)
chain 1: B1 chain
chain 2: B1 chain
modifications: here or on the partner: six-arm branched PEG of about 5 kDa on the N-terminal amino acid
B4 yielded a reporter gene activity (luciferase, SRE reporter in TGW cells), EC50 of 12 ng/mL.
